Data: article PMC10759339, “Expression of NELL2/NICOL-ROS1 lumicrine signaling-related molecules in the human male reproductive tract” (Reproductive Biology and Endocrinology : RB&E, 2024)

Experiments:
NICOL (Mus musculus) = NICOL (Mus musculus) (UniProt Q3UR78); conditions: cited from earlier work
[1] = target: T1, C-terminally 6×His-tagged recombinant human NELL2 protein (human, UniProt Q99435 22-816); experiment: SPR; purified human NELL2 immobilised on a series S sensor chip CM5 as ligand; purified human NICOL in PBS as analyte at increasing concentration; Biacore T200; conditions: both partners purified
T1 construct: Neural EGF-like like 2 (NELL2), human; also called Neural EGF-like like 2
T1 sequence (looked up): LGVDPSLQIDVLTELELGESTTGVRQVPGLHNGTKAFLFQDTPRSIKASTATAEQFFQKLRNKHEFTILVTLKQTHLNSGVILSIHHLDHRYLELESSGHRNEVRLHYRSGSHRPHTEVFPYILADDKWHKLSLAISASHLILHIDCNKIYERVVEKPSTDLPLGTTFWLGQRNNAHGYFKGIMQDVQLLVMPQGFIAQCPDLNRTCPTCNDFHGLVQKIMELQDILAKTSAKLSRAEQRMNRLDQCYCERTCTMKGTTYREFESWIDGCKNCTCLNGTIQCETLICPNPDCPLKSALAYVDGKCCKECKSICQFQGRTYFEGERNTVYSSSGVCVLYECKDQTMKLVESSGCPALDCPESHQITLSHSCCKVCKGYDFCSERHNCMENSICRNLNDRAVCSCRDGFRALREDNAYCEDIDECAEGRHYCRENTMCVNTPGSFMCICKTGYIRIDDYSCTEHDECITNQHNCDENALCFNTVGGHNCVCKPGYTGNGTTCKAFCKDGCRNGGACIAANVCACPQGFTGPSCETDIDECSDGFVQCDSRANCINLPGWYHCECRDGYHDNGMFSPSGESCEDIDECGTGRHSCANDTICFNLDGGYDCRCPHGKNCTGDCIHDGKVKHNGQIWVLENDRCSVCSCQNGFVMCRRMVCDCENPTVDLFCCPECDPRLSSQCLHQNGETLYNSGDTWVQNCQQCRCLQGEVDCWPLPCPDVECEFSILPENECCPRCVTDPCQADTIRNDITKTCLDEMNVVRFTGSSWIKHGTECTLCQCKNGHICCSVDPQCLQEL

NICOL (Mus musculus), sequence (Q3UR78 29-90): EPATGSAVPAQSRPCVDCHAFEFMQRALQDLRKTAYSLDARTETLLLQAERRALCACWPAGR

For NELL2 (from UniProt Q61220), the Kd (NICOL (Mus musculus)) is listed as 87 nM.

B1: C-terminally 6×His-tagged human NICOL protein (ligand, UniProt Q5BLP8 35-95, looked up)
chain: EPAGSAVPAQSRPCVDCHAFEFMQRALQDLRKTACSLDARTETLLLQAERRALCACWPAGH
notes: also called C4orf48
B1 showed a Kd [1] of 110 nM, a koff [1] of 0.00098 s⁻¹ and a kon [1] of 9100 M⁻¹ s⁻¹.
